Measurements published in patent US12338277.

Columns and labels:
Test in all cases: cell-based or functional assay
[1] = target: HIV-1 Env of pseudovirus HIV-16055-2.3 (HIV-1)
[2] = target: HIV-1 envelope of pseudovirus WITO4160.33 (HIV-1)
[3] = target: HIV-1 Env of pseudovirus 231965.c01 (HIV-1)
[4] = target: HIV-1 Env of pseudovirus 0260.v5.c36 (HIV-1)
[5] = target: HIV-1 envelope of pseudovirus 6244_13_85_4576 (HIV-1)
[6] = target: HIV-1 envelope of pseudovirus X1254_c3 (HIV-1)
[7] = target: HIV-1 Env of pseudovirus 89-F1_2_25 (HIV-1)
[8] = target: HIV-1 Env of pseudovirus X1632_S2_B10 (HIV-1)
[9] = target: HIV-1 Env of pseudovirus 211-9 (HIV-1)
[10] = target: HIV-1 envelope of pseudovirus 231965.c01 (HIV-1)
[11] = target: HIV-1 Env of pseudovirus X1254_c3 (HIV-1)
[12] = target: HIV-1 envelope of pseudovirus 246F C1G (HIV-1)
[13] = target: HIV-1 envelope of pseudovirus 263-8 (HIV-1)
[14] = target: HIV-1 Env of pseudovirus ZM135M.PL10a (HIV-1)
[15] = target: HIV-1 envelope of pseudovirus CNE17 (HIV-1)
[16] = target: HIV-1 Env of pseudovirus CNE17 (HIV-1)
[17] = target: HIV-1 envelope of pseudovirus CAP45.2.00.G3 (HIV-1)
[18] = target: HIV-1 envelope of pseudovirus R1166.c01 (HIV-1)
[19] = target: HIV-1 Env of pseudovirus Q842.d12 (HIV-1)
[20] = target: HIV-1 Env of pseudovirus 6952.v1.c20 (HIV-1)
[21] = target: HIV-1 Env of pseudovirus 231966.c02 (HIV-1)
[22] = target: HIV-1 envelope of pseudovirus HIV-16055-2.3 (HIV-1)
[23] = target: HIV-1 envelope of pseudovirus 928-28 (HIV-1)
[24] = target: HIV-1 Env of pseudovirus RHPA4259.7 (HIV-1)
[25] = target: HIV-1 envelope of pseudovirus Ce2060_G9 (HIV-1)
[26] = target: HIV-1 envelope of pseudovirus THRO4156.18 (HIV-1)
[27] = target: HIV-1 Env of pseudovirus YU-2 (HIV-1) (UniProt P35961)
[28] = target: HIV-1 envelope of pseudovirus T255-34 (HIV-1)
[29] = target: HIV-1 Env of pseudovirus CNE8 (HIV-1)
[30] = target: HIV-1 envelope of pseudovirus BJOX009000.02.4 (HIV-1)
[31] = target: HIV-1 envelope of pseudovirus ZM247v1(Rev-) (HIV-1)
[32] = target: HIV-1 Env of pseudovirus HIV-16845-2.22 (HIV-1)
[33] = target: HIV-1 Env of pseudovirus Ce1176_A3 (HIV-1)
[34] = target: HIV-1 envelope of pseudovirus 249M B10 (HIV-1)
[35] = target: HIV-1 envelope of pseudovirus X1632_S2_B10 (HIV-1)
[36] = target: HIV-1 Env of pseudovirus CAP210.2.00.E8 (HIV-1)
[37] = target: HIV-1 envelope of pseudovirus Q769.d22 (HIV-1)
[38] = target: HIV-1 Env of pseudovirus CNE5 (HIV-1)
[39] = target: HIV-1 Env of pseudovirus ZM109F.PB4 (HIV-1)
[40] = target: HIV-1 envelope of pseudovirus P1981_C5_3 (HIV-1)
[41] = target: HIV-1 envelope spike of pseudovirus R1166.c1 (HIV-1)
[42] = target: HIV-1 envelope of pseudovirus T251-18 (HIV-1)
[43] = target: HIV-1 Env of pseudovirus TRJO4551.58 (HIV-1)
[44] = target: HIV-1 Env of pseudovirus Q23.17 (HIV-1)
[45] = target: HIV-1 envelope spike of pseudovirus TRJO4551.58 (HIV-1)
[46] = target: HIV-1 Env of pseudovirus CNE30 (HIV-1)
[47] = target: HIV-1 envelope of pseudovirus 3365.v2.c2 (HIV-1)
[48] = target: HIV-1 Env of pseudovirus BJOX010000.06.2 (HIV-1)
[49] = target: HIV-1 envelope of pseudovirus 3817.v2.c59 (HIV-1)
[50] = target: HIV-1 envelope of pseudovirus 211-9 (HIV-1)

Sequence of 10-1074 (antibody) (VH): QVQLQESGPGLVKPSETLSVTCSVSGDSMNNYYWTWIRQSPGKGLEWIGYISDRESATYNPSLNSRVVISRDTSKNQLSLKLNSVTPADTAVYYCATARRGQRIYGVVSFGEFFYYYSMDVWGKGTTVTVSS
Sequence of 10-1074 (antibody) (V domain): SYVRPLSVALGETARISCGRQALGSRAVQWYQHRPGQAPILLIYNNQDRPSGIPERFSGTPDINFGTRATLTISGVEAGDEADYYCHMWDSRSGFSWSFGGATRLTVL
Sequence of HIV-1 Env of pseudovirus YU-2 (HIV-1) (P35961 32-843 limits assumed): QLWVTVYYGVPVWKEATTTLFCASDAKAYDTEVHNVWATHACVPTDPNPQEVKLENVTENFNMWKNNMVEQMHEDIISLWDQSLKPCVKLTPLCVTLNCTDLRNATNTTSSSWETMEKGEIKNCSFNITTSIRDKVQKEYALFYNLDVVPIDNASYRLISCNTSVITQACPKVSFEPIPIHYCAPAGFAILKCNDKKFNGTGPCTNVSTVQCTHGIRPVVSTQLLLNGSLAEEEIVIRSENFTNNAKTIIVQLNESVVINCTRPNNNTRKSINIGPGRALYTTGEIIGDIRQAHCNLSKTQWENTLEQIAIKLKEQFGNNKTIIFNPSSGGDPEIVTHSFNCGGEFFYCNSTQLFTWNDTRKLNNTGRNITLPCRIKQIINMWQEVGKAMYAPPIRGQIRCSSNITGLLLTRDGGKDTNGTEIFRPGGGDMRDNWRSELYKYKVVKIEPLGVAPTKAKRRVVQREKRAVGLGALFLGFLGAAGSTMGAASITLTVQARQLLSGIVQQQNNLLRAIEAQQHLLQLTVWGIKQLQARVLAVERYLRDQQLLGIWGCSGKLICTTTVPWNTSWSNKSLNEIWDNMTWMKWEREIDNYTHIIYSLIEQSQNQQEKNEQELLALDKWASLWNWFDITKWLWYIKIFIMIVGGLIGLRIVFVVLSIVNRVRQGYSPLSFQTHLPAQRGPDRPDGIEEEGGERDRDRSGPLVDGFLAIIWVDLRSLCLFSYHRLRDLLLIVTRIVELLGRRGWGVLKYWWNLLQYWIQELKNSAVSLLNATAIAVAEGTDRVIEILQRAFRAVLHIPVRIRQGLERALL

Substance: 10-1074 (antibody)
- IC80 (TZM-bl neutralization) [1]: > 50 mg/L
- IC50 (TZM-bl neutralization) [2]: 0.185 mg/L
- IC80 (TZM-bl neutralization) [3]: > 50 mg/L
- IC80 (TZM-bl neutralization) [4]: 0.16 mg/L
- IC50 (TZM-bl neutralization) [5]: 0.202 mg/L
- IC50 (TZM-bl neutralization) [6]: 0.089 mg/L
- IC80 (TZM-bl neutralization) [7]: > 50 mg/L
- IC80 (TZM-bl neutralization) [8]: > 50 mg/L
- IC80 (TZM-bl neutralization) [9]: 0.425 mg/L
- IC50 (TZM-bl neutralization) [10]: > 50 mg/L
- IC80 (TZM-bl neutralization) [11]: 0.297 mg/L
- IC50 (TZM-bl neutralization) [12]: 0.022 mg/L
- IC50 (TZM-bl neutralization) [13]: 0.666 mg/L
- IC80 (TZM-bl neutralization) [14]: 0.367 mg/L
- IC50 (TZM-bl neutralization) [15]: 2.69 mg/L
- IC80 (TZM-bl neutralization) [16]: 13.3 mg/L
- IC50 (TZM-bl neutralization) [17]: > 50 mg/L
- IC50 (TZM-bl neutralization) [18]: > 50 mg/L
- IC80 (TZM-bl neutralization) [19]: > 50 mg/L
- IC80 (TZM-bl neutralization) [20]: 0.138 mg/L
- IC80 (TZM-bl neutralization) [21]: > 50 mg/L
- IC50 (TZM-bl neutralization) [22]: > 50 mg/L
- IC50 (TZM-bl neutralization) [23]: 0.847 mg/L
- IC80 (TZM-bl neutralization) [24]: 0.118 mg/L
- IC50 (TZM-bl neutralization) [25]: > 50 mg/L
- IC50 (TZM-bl neutralization) [26]: > 50 mg/L
- IC80 (TZM-bl neutralization) [27]: 0.398 mg/L
- IC50 (TZM-bl neutralization) [28]: > 50 mg/L
- IC80 (TZM-bl neutralization) [29]: > 50 mg/L
- IC50 (TZM-bl neutralization) [30]: > 50 mg/L
- IC50 (TZM-bl neutralization) [31]: 0.042 mg/L
- IC80 (TZM-bl neutralization) [32]: 5.83 mg/L
- IC80 (TZM-bl neutralization) [33]: 0.07 mg/L
- IC50 (TZM-bl neutralization) [34]: > 50 mg/L
- IC50 (TZM-bl neutralization) [35]: > 50 mg/L
- IC80 (TZM-bl neutralization) [36]: > 50 mg/L
- IC50 (TZM-bl neutralization) [37]: > 50 mg/L
- IC80 (TZM-bl neutralization) [38]: > 50 mg/L
- IC80 (TZM-bl neutralization) [39]: > 50 mg/L
- IC50 (TZM-bl neutralization) [40]: 0.005 mg/L
- IC50 (TZM-bl neutralization assay) [41]: > 40 mg/L
- IC80 (TZM-bl neutralization assay) [41]: > 40 mg/L
- IC50 (TZM-bl neutralization) [42]: 1.08 mg/L
- IC80 (TZM-bl neutralization) [43]: 0.634 mg/L
- IC80 (TZM-bl neutralization) [44]: 0.021 mg/L
- IC50 (TZM-bl neutralization assay) [45]: 0.17 mg/L
- IC80 (TZM-bl neutralization assay) [45]: 0.693 mg/L
- IC80 (TZM-bl neutralization) [46]: 1.2 mg/L
- IC50 (TZM-bl neutralization) [47]: 0.131 mg/L
- IC80 (TZM-bl neutralization) [48]: > 50 mg/L
- IC50 (TZM-bl neutralization) [49]: 3.15 mg/L
- IC50 (TZM-bl neutralization) [50]: 0.112 mg/L

Substance: PGT121 (antibody)
- IC80 (TZM-bl neutralization) [1]: 4.29 mg/L
- IC50 (TZM-bl neutralization) [2]: 0.459 mg/L
- IC80 (TZM-bl neutralization) [3]: > 50 mg/L
- IC80 (TZM-bl neutralization) [4]: 0.152 mg/L
- IC50 (TZM-bl neutralization) [5]: 0.249 mg/L
- IC50 (TZM-bl neutralization) [6]: 0.056 mg/L
- IC80 (TZM-bl neutralization) [7]: > 50 mg/L
- IC80 (TZM-bl neutralization) [8]: > 50 mg/L
- IC80 (TZM-bl neutralization) [9]: 8.84 mg/L
- IC50 (TZM-bl neutralization) [10]: > 50 mg/L
- IC80 (TZM-bl neutralization) [11]: 0.199 mg/L
- IC50 (TZM-bl neutralization) [12]: 0.083 mg/L
- IC50 (TZM-bl neutralization) [13]: 3.35 mg/L
- IC80 (TZM-bl neutralization) [14]: 5.88 mg/L
- IC50 (TZM-bl neutralization) [15]: 45.3 mg/L
- IC80 (TZM-bl neutralization) [16]: > 50 mg/L
- IC50 (TZM-bl neutralization) [17]: 0.086 mg/L
- IC50 (TZM-bl neutralization) [18]: > 50 mg/L
- IC80 (TZM-bl neutralization) [19]: 0.074 mg/L
- IC80 (TZM-bl neutralization) [20]: 0.605 mg/L
- IC80 (TZM-bl neutralization) [21]: > 50 mg/L
- IC50 (TZM-bl neutralization) [22]: 0.444 mg/L
- IC50 (TZM-bl neutralization) [23]: > 50 mg/L
- IC80 (TZM-bl neutralization) [24]: 0.054 mg/L
- IC50 (TZM-bl neutralization) [25]: > 50 mg/L
- IC50 (TZM-bl neutralization) [26]: > 50 mg/L
- IC80 (TZM-bl neutralization) [27]: 0.356 mg/L
- IC50 (TZM-bl neutralization) [28]: 6.72 mg/L
- IC80 (TZM-bl neutralization) [29]: > 50 mg/L
- IC50 (TZM-bl neutralization) [30]: 3.63 mg/L
- IC50 (TZM-bl neutralization) [31]: 0.027 mg/L
- IC80 (TZM-bl neutralization) [32]: > 50 mg/L
- IC80 (TZM-bl neutralization) [33]: 0.058 mg/L
- IC50 (TZM-bl neutralization) [34]: > 50 mg/L
- IC50 (TZM-bl neutralization) [35]: > 50 mg/L
- IC80 (TZM-bl neutralization) [36]: > 50 mg/L
- IC50 (TZM-bl neutralization) [37]: > 50 mg/L
- IC80 (TZM-bl neutralization) [38]: > 50 mg/L
- IC80 (TZM-bl neutralization) [39]: > 50 mg/L
- IC50 (TZM-bl neutralization) [40]: 0.004 mg/L
- IC50 (TZM-bl neutralization assay) [41]: > 40 mg/L
- IC80 (TZM-bl neutralization assay) [41]: > 40 mg/L
- IC50 (TZM-bl neutralization) [42]: > 50 mg/L
- IC80 (TZM-bl neutralization) [43]: 35.3 mg/L
- IC80 (TZM-bl neutralization) [44]: 0.031 mg/L
- IC50 (TZM-bl neutralization assay) [45]: 3.9 mg/L
- IC80 (TZM-bl neutralization assay) [45]: 26.9 mg/L
- IC80 (TZM-bl neutralization) [46]: 0.559 mg/L
- IC50 (TZM-bl neutralization) [47]: 0.921 mg/L
- IC80 (TZM-bl neutralization) [48]: > 50 mg/L
- IC50 (TZM-bl neutralization) [49]: > 50 mg/L
- IC50 (TZM-bl neutralization) [50]: 1.46 mg/L
